Article PMC5447677, “Pathogenic Leptospira Secreted Proteases Target the Membrane Attack Complex: A Potential Role for Thermolysin in Complement Inhibition” (Frontiers in Microbiology, 2017)

Tests used:
Experiment in all cases: ELISA; thermolysin coated on microtiter plates (100 ul; 10 ug/ml, 16 h, 4 C), blocked with 3% BSA in PBS; C6, C7, C8 or C9 added (100 ul; 0-5 ug/ml) for 1 h at 37 C; detected with goat polyclonal antibodies, absorbance at 492 nm; Kd by non-linear regression Y = Bmax*X/(Kd + X); for C6 also with a fixed amount (1 ug) in 0-600 mM NaCl (reduced only at 600 mM) or 0.05-1 ug heparin (dose-dependent inhibition)
Conditions in all cases: both partners purified
[1] = target: T1, Complement component C6, purified from human plasma (human, UniProt P13671 22-934)
T1 construct: human complement component C6, single polypeptide chain (~100 kDa), purified from plasma; source: bought: Complement Technology (purified from human plasma)

[2] = target: T2, Complement component C7, purified from human plasma (human, UniProt P10643 23-843)
T2 construct: human complement component C7, 95 kDa single chain, purified from plasma; source: bought: Complement Technology (purified from human plasma)

[3] = target: T3, Complement component C8, purified from human plasma (human, UniProt P07357 31-584; P07358 55-591; P07360 21-202)
T3 construct: human complement component C8 alpha chain (~64 kDa), purified from plasma as intact C8; human complement component C8 beta chain (~64 kDa), purified from plasma as intact C8; human complement component C8 gamma chain (~22 kDa), purified from plasma as intact C8; Intact C8 of three polypeptide chains (alpha, beta, gamma); source: bought: Complement Technology (purified from human plasma); copies: …

[4] = target: T4, Complement component C9, purified from human plasma (human, UniProt P02748 22-559)
T4 construct: human complement component C9, single 71 kDa polypeptide chain, purified from plasma; source: bought: Complement Technology (purified from human plasma)
T4 sequence (P02748 22-559): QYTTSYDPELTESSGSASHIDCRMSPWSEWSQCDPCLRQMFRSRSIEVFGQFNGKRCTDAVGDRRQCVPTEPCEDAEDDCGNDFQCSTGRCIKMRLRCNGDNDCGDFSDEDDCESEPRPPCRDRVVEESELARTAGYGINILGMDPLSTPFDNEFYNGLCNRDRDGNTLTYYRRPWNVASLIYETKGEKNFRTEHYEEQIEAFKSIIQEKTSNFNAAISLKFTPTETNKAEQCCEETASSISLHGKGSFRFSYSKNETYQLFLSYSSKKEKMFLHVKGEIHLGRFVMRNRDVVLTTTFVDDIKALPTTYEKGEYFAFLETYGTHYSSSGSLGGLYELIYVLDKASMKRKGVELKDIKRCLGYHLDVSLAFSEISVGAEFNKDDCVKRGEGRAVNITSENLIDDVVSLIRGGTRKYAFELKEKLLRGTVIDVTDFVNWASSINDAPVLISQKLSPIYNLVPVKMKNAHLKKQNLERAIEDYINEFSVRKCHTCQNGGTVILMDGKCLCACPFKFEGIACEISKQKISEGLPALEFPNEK

T1 sequence (P13671 22-934): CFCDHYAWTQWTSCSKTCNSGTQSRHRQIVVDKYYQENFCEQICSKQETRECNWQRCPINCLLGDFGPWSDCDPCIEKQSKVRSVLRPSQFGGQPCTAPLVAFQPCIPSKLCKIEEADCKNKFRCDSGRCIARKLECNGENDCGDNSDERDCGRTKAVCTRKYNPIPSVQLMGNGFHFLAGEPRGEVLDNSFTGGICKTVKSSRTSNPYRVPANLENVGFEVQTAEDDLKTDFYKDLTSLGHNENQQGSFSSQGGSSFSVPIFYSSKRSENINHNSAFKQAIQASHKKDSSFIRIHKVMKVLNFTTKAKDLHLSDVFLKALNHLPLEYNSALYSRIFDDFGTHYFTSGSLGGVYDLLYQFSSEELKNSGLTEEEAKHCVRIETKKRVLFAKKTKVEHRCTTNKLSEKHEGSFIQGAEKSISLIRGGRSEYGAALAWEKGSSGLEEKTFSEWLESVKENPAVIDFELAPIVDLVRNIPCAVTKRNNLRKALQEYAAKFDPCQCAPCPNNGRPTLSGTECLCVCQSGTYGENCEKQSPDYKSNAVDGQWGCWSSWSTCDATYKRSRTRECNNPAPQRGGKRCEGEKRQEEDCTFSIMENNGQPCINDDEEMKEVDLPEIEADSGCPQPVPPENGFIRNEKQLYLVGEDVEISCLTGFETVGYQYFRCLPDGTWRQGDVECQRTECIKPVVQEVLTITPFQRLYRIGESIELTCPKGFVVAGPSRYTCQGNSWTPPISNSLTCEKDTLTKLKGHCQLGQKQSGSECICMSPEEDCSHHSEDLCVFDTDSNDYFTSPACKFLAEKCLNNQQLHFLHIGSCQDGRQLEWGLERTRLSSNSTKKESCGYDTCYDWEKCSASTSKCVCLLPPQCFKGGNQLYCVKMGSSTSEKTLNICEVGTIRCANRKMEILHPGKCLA
T3 sequence (P07357 31-584, chain 1 of 3): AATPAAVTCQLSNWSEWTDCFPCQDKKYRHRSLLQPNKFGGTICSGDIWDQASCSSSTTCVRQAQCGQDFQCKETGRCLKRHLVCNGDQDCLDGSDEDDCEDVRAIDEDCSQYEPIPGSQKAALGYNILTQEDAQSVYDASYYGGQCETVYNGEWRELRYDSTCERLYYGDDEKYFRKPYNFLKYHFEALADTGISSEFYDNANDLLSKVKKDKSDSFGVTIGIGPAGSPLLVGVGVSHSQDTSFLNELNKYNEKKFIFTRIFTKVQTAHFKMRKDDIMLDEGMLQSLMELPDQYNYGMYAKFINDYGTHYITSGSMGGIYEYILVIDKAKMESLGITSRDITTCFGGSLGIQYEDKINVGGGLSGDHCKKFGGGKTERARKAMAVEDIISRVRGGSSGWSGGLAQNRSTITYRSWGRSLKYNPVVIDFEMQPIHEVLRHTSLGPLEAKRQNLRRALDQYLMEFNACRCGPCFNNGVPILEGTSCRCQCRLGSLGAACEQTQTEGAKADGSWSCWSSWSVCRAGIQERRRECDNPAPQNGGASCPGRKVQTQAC
T3 sequence (P07358 55-591, chain 2 of 3): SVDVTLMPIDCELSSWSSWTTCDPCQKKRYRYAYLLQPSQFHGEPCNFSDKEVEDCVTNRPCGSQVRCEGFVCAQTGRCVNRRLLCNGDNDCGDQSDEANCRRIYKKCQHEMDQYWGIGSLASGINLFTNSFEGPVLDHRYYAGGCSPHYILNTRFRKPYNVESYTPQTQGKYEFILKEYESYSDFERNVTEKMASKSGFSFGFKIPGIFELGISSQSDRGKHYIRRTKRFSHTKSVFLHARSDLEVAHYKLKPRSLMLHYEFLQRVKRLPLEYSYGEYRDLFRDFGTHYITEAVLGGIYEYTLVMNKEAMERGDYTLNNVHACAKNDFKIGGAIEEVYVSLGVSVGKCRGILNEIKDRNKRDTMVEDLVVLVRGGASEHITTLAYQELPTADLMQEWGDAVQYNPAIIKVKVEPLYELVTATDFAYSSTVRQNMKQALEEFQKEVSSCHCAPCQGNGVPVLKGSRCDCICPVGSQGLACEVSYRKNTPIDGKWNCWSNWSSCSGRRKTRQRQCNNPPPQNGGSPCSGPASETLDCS
T3 sequence (P07360 21-202, chain 3 of 3): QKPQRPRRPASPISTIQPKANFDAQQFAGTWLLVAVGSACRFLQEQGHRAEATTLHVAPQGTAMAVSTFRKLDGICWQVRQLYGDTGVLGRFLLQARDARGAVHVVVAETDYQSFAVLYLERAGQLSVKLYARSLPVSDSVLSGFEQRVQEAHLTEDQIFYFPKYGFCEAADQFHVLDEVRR
T2 sequence (P10643 23-843): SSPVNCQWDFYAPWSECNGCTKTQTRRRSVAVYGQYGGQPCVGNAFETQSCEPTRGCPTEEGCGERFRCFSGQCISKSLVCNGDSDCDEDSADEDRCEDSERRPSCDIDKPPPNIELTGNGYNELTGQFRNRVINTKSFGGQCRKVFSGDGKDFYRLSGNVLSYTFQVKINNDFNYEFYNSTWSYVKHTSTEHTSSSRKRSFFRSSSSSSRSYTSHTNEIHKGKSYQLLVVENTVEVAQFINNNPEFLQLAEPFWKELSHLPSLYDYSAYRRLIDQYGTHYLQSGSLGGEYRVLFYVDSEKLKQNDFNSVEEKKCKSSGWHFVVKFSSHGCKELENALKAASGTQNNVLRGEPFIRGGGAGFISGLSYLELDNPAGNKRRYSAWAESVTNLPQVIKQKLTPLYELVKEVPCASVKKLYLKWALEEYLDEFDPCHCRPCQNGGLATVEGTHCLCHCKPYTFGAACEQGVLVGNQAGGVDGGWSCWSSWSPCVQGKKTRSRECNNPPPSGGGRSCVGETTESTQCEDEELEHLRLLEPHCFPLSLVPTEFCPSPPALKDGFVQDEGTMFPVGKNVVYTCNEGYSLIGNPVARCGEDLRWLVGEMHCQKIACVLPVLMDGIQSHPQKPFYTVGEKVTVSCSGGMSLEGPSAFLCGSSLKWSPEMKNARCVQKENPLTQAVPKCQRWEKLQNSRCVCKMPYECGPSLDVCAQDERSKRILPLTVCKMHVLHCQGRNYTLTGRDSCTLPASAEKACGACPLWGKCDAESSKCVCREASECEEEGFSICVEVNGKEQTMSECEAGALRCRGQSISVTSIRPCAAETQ

B1: recombinant thermolysin (LIC13322), PepSY-M4 fragment (domain or fragment)
chain: EFYQVPENFNSSPKLSESEALSKTLKHIGAKKYIWESVEREAALKRKKNDPNASYFPKGELLVYEHSLGKSNTKKEFRLAYKFGIASIDPPISRYVYVDSNSGEILSSKDARRYEGVQFPSPKPPIEIDIDYSRCIIDKEYCIEQGTAMTRFSGLQSITTWTAGKTNHFELKDNSRGGGIYTYSWEFVKDPLEDIQLLNIPMIDTNNSWSQSEYHDNYNHDALLDAHWGIEMTYDYFKSIHNRLSYDGDNSRIFNNVHYFNAFVANNAYWDPVTEEIYYVYCPHKNSICKGFNLPILLDPKYEDFTSLDIVSHEFGHGINGDLAGFNLDMEPGALDEGFSDIWNVGVNNYVNKVLGMQKNIWLVGDETVPGGGMRSVSNPKSTTVMSPGPNTYHGDLWDFEDNEAHTNSLVLSHWFYTLSKGKQGFNDYECTYNVSGIGIEKAERIAYVALLFLSSTSGYTSARTYAIIAAKLLYGLFSSEVKSTIDAWDAVAVPAETTSRGGQGMVRPRHYIASVKLSNVTNDSGNDCGYKDNSYLLPTVLRGVTYNMVLLSQGSASNPSKVHKWRVWIDFNQNGSFESSEMVVQDTVNSSFGGTLQKSIKIPTNALTGYAKMRVSMKAAQSGEAYQGSSESFVEGEVEDYIVSILDFSL
B1 was tested, and the Kd [1] was 31.8 ± 2.2 nM, the Kd [2] was 17.8 ± 1.3 nM and the Kd [3] was 62 ± 7.1 nM. It also gave a Kd [4] of 56.8 ± 5.2 nM.
